Data reported in patent publication US20230330254A1, “ANTI-GLP1R ANTIBODY-TETHERED DRUG CONJUGATES COMPRISING GLP1 PEPTIDOMIMETICS AND USES THEREOF” (Regeneron Pharmaceuticals, Inc., priority 2022, published 2023).
Where two headings read alike, the source gives them in different places.

What was measured:
Experiment in all cases: cell-based or functional assay
[1] = target: full-length cynomolgus GLP1R on HEK293/CRE-Luc/mfGLP1R cells (cynomolgus) (UniProt F8V479)
[2] = target: full-length human GLP1R on HEK293/CRE-Luc/hGLP1R cells (human) (UniProt P43220)
[3] = target: full-length human gastric inhibitory polypeptide receptor on HEK293/CRE-Luc/hGIPR cells (human) (UniProt P48546)
[4] = target: full-length human glucagon receptor on HEK293/CRE-Luc/hGCGR cells (human) (UniProt P47871)
[5] = target: full-length human glucagon-like peptide 2 receptor on HEK293/CRE-Luc/hGLP2R cells (human) (UniProt O95838)
[6] = target: full-length cynomolgus GLP1R on HEK293/CRE-Luc/mfGLP1R cells (cynomolgus) (UniProt F8V479); remark: listed apart in the source
Target sequence in this assay (F8V479 entry or part of it): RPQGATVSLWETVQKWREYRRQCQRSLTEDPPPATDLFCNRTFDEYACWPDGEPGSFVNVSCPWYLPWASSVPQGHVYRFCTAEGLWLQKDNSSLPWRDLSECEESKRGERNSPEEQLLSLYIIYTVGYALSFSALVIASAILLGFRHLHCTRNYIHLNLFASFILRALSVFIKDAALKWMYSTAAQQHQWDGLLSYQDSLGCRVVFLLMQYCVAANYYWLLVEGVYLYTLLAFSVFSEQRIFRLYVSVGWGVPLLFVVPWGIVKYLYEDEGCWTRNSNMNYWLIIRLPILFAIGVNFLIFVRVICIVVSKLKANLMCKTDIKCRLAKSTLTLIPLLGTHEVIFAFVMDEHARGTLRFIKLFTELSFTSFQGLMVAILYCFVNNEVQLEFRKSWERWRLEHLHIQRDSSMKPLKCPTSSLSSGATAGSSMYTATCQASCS

[7] = target: full-length human GLP1R on HEK293/CRE-Luc/hGLP1R cells (human) (UniProt P43220); remark: listed apart in the source
[8] = target: full-length human glucagon receptor on HEK293/CRE-Luc/hGCGR cells (human) (UniProt P47871); remark: listed apart in the source
[9] = target: full-length human glucagon-like peptide 2 receptor on HEK293/CRE-Luc/hGLP2R cells (human) (UniProt O95838); remark: listed apart in the source
[10] = target: full-length human gastric inhibitory polypeptide receptor on HEK293/CRE-Luc/hGIPR cells (human) (UniProt P48546); remark: listed apart in the source

Chain of human GCG (glucagon) (P01275 53-81 limits assumed): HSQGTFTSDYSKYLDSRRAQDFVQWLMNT
Chain of full-length human glucagon receptor on HEK293/CRE-Luc/hGCGR cells (human) (P47871 26-477): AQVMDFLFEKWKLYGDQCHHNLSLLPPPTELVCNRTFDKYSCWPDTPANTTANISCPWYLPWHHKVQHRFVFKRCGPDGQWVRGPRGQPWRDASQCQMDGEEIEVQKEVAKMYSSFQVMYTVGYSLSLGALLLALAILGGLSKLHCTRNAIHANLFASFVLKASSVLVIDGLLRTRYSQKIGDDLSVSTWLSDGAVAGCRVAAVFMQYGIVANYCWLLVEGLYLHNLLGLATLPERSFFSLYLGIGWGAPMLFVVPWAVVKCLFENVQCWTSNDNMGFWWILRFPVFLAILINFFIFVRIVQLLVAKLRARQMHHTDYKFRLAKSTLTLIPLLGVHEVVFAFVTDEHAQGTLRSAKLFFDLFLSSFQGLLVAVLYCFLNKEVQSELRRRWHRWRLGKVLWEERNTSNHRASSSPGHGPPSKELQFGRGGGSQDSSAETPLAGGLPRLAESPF
Chain of human GLP2 (P01275 146-178 limits assumed): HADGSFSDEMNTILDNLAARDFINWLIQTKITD
Chain of full-length human glucagon-like peptide 2 receptor on HEK293/CRE-Luc/hGLP2R cells (human) (O95838 whole entry): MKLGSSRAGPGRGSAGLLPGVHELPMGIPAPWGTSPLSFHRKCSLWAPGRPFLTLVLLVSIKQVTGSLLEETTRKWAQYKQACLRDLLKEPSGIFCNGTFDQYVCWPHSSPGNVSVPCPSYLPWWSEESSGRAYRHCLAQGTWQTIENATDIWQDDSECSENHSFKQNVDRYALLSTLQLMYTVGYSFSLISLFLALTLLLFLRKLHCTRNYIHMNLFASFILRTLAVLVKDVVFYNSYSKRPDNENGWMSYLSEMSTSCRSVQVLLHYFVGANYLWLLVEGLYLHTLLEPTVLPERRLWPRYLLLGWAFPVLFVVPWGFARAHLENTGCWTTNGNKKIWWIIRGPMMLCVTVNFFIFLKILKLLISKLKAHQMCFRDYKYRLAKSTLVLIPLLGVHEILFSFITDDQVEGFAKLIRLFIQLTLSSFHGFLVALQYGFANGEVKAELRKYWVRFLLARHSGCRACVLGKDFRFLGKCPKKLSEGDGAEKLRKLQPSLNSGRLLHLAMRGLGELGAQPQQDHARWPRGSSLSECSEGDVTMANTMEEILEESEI
Chain of full-length human gastric inhibitory polypeptide receptor on HEK293/CRE-Luc/hGIPR cells (human) (P48546 22-466): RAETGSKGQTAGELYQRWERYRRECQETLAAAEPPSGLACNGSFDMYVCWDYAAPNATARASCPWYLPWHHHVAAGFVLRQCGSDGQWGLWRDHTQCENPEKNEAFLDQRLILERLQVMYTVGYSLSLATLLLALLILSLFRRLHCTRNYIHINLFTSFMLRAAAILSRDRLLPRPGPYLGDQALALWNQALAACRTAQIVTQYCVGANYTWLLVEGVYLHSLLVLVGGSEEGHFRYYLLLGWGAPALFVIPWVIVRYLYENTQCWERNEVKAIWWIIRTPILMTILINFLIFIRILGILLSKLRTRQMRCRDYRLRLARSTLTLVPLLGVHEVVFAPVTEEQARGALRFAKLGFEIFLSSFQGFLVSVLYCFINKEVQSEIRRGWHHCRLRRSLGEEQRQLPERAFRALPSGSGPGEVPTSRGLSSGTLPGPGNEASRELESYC
Chain of full-length human GLP1R on HEK293/CRE-Luc/hGLP1R cells (human) (P43220 24-463): as the sequence (F8V479 entry or part of it) above, with N112S, S120F, G202S, V205L, F237L, R241W, V249I counted along it

Row | Substance | CRE-luc EC50 [1] [nM] | CRE-luc EC50 [2] [nM] | CRE-luc EC50 [3] [nM] | CRE-luc EC50 [4] [nM] | CRE-luc EC50 [5] [nM] | CRE-luc EC50 [6] [nM] | CRE-luc EC50 [7] [nM] | CRE-luc EC50 [8] [nM] | CRE-luc EC50 [9] [nM] | CRE-luc EC50 [10] [nM]
1 | Isotype control Ab (unconjugated; Q tag none or not stated) (antibody) | > 300 | > 300 | > 300 | > 300 | > 300 | – | – | – | – | –
2 | human GIP (from UniProt P09681 52-93) (ligand) | – | > 30 | – | > 30 | > 30 | > 200 | > 200 | > 200 | > 200 | –
3 | human GLP1 (reference ligand) (from UniProt P01275 98-128) | – | – | > 30 | > 30 | > 30 | – | – | > 200 | > 200 | > 200

The remaining lines, values ahead:

Row | CRE-luc EC50 [1] [nM] | CRE-luc EC50 [2] [nM] | CRE-luc EC50 [3] [nM] | CRE-luc EC50 [4] [nM] | CRE-luc EC50 [5] [nM] | CRE-luc EC50 [6] [nM] | CRE-luc EC50 [7] [nM] | CRE-luc EC50 [8] [nM] | CRE-luc EC50 [9] [nM] | CRE-luc EC50 [10] [nM] | Substance
4 | – | > 30 | > 30 | > 30 | – | > 200 | > 200 | > 200 | – | > 200 | human GLP2 (from UniProt P01275 146-178) (ligand)
5 | – | – | > 30 | – | > 30 | – | – | – | > 200 | > 200 | human GCG (glucagon) (from UniProt P01275 53-81) (ligand)
